Target: T1, untagged full-length WT MCTS1 (human, UniProt Q9ULC4 1-181)
T1 construct: MCTS1, human, ORF in pETDuet under its own T7 promotor, untagged; also called MCT-1; source: E. coli BL21 (DE3), coexpressed with HIS-tagged DENR variants; in lysate for the pull-down, co-purified (NiNTA, SEC) for crystallization
T1 sequence (looked up): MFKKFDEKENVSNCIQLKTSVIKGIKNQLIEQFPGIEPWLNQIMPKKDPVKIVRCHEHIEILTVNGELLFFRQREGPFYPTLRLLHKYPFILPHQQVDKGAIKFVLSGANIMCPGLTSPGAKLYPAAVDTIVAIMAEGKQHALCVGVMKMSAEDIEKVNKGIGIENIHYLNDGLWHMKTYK
Assay: pull-down; N-terminally HIS-tagged DENR variants or fragments coexpressed with untagged MCTS1 in E. coli; DENR purified over a nickel column, copurifying MCTS1 detected in the eluate
Settings: partners not purified

B1: NHis6-tagged DENR aas 24–51 (domain or fragment, human, UniProt O43583 24-51, looked up)
chain: DADYPLRVLYCGVCSLPTEYCEYMPDVA
notes: DENR, human, residues 24-51; also called DENR(aa24–51); DENR peptide; source: E. coli BL21 (DE3), coexpressed with untagged MCTS1; in lysate for the pull-down, purified (NiNTA, SEC) for crystallization; not shown: His6, N-terminal, kept
binding result: binds

— article PMC6013234, “DENR–MCTS1 heterodimerization and tRNA recruitment are required for translation reinitiation” (PLoS Biology, 2018)
